T1: Myo5 SH3 (MYO5_YEAST), Q04439
T1 chain: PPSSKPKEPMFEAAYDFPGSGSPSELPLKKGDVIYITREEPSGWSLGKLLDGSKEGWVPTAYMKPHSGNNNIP

T2: Rvs167 SH3 (RV167_YEAST), P39743
T2 chain: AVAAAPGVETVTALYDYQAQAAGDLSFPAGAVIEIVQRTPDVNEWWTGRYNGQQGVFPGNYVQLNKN

T3: Yhr016c SH3 (YSC84_YEAST), P32793
T3 chain: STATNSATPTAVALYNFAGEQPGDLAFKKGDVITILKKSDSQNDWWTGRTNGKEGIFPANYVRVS

T4: Boi2 SH3 (BOI2_YEAST), P39969
T4 chain: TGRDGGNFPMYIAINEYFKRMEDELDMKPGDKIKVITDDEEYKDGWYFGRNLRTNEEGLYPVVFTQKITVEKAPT

T5: Boi1 SH3 (BOI1_YEAST), P38041
T5 chain: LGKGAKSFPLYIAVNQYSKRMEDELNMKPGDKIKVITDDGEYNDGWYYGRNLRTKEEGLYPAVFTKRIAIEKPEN

T6: Yfr024 SH3 (LSB3_YEAST), P43603
T6 chain: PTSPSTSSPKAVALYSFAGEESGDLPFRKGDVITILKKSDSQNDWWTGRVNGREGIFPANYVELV


How the values were obtained:
Assay in all cases: SPOT array
[1] = target: T1, Myo5 SH3 (MYO5_YEAST), Q04439
[2] = target: T2, Rvs167 SH3 (RV167_YEAST), P39743
[3] = target: T3, Yhr016c SH3 (YSC84_YEAST), P32793
[4] = target: T4, Boi2 SH3 (BOI2_YEAST), P39969
[5] = target: T5, Boi1 SH3 (BOI1_YEAST), P38041
[6] = target: T6, Yfr024 SH3 (LSB3_YEAST), P43603
[7] = target: Sho1 SH3 (SHO1_YEAST), P40073
Sho1 SH3 (SHO1_YEAST), P40073, sequence (P40073 295-366): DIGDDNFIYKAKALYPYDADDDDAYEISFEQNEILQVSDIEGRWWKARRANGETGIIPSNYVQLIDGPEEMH

Binder | normalised SPOT signal, Boehringer light units (BLU); mean over the file's lines of this peptide [1] | normalised SPOT signal, Boehringer light units (BLU); mean over the file's lines of this peptide [2] | normalised SPOT signal, Boehringer light units (BLU); mean over the file's lines of this peptide [3] | normalised SPOT signal, Boehringer light units (BLU); mean over the file's lines of this peptide [4] | normalised SPOT signal, Boehringer light units (BLU); mean over the file's lines of this peptide [5] | normalised SPOT signal, Boehringer light units (BLU); mean over the file's lines of this peptide [6] | normalised SPOT signal, Boehringer light units (BLU); mean over the file's lines of this peptide [7]
GKMVKWGPLRPFLS [YOL072W 279-292] | 645 | 1050 | 984 | 153 | 64.2 | 1990 | 148
GRHLKNIPRIPIFS [YLR106C 2506-2519] | 1040 | 176 | 69.5 | 6.1 | 702 | 947 | 198
GQIDRDKPSEPERT [YJL184W 45-58] | 100 | 47.7 | 37.9 | 21 | 15 | 68.7 | 43.8
GKDHRLAPNGPGMH [YDR333C 253-266] | 218 | 3.1 | 24.5 | 4.7 | 2160 | 29.4 | 36.4
GIMIKAKPSSPYTY [YLR260W 30-43] | 236 | 248 | 197 | 53.5 | 69.6 | 662 | 62.2
GRSLRKRPTSPSIS [YJR059W 48-61] | 820 | 1120 | 106 | 119 | 370 | 440 | 44.9
GLNLKWEPSTPQRN [YCR102C 154-167] | 105 | 10.9 | 152 | 4.6 | 447 | 1020 | 62.8
GQQKRFSPSLPSAV [YKL088W 110-123] | 728 | 111 | 140 | 9.3 | 1200 | 697 | 47.2
GLMSKLGPNLPASI [YLR092W 403-416] | 287 | 275 | 41.6 | 40 | 118 | 606 | 63.1
GSYIKRTPKIPEKD [YDR026C 219-232] | 206 | 153 | 52 | 32.5 | 129 | 436 | 554
GSQWKNHPDWPFWV [YLR057W 726-739] | 108 | 46.8 | 18.7 | 9.6 | 133 | 69.9 | 14.5
GLVLRSTPVIPDMK [YPR019W 330-343] | 209 | 5260 | 302 | 126 | 116 | 2380 | 60.9
GIKVKRIPYSPKSI [YMR309C 639-652] | 391 | 57.5 | 15.9 | 1.5 | 136 | 178 | 15.1
GSLVKTKPTLPLTK [YLR339C 59-72] | 422 | 21.1 | 82.1 | 25.5 | 907 | 509 | 22.8
GNNSRNIPPPPPPP [YMR089C 148-161] | 10300 | 49.6 | 15.8 | 14.2 | 61.5 | 62 | 28.3
GLDLKWEPSTPQRK [YLR460C 162-175] | 164 | 73 | 342 | 6.1 | 2030 | 1010 | 62.6
